Experimental findings from patent US20120237528A1 (Janssen / Centocor, published 2012) are described below.

Residue numbers refer to the chain shown, from its start.

To fix the notation:
B1: M30 (antibody, V domains shown)
VH: EVQLVESGGGLVQPGGSLRLSCAASGYTFITYWIEWVRQAPGKGLVWVSDILPGSGSTNYNENFKGRFTISRDNAKNTLYLQMNSLRAEDTAVYYCARSGYYGNSGFAYWGQGTLVTVSS
VL: DIVMTQSPDSLAVSLGERATINCKSSQSLLSSGNQKNYLTWYQQKPGQPPKLLIYWASTRESGVPDRFSGSGSGTDFTLTISSLQAEDVAVYYCQNDYTYPLTFGQGTKLEIK
notes: complete MAb; FR4 is its own entry; also called H18/L2
B2: M51 (antibody, V domains shown)
VH: EVQLVQSGAEVKKPGATVKISCKVSGYTFITYWIEWVQQAPGKGLEWMGDILPGSGSTNYNENFKGRVTITADTSTDTAYMELSSLRSEDTAVYYCATSGYYGNSGFAYWGQGTLVTVSS
VL: B1 VL
notes: complete MAb; FR4 is its own entry; also called H21/L2
B3: M54 (antibody, V domains shown)
VH: B2 VH
VL: DIVMTQTPLSLSVTPGQPASISCKSSQSLLSSGNQKNYLTWYLQKPGQPPQLLIYWASTRESGVPDRFSGSGSGTDFTLKISRVEAEDVGVYYCQNDYTYPLTFGQGTKLEIK
notes: complete MAb; FR4 is its own entry; also called H21/L5
B4: M31 (antibody, V domains shown)
VH: B1 VH
VL: B3 VL with S12P, Q17E, P49S
notes: complete MAb; FR4 is its own entry; also called H18/L3
B5: M32 (antibody, V domains shown)
VH: B1 VH
VL: B3 VL with T7S, S12P, Q17E, P49S
notes: complete MAb; FR4 is its own entry; also called H18/L4
B6: M56 (antibody, V domains shown)
VH: B2 VH
VL: B3 VL with L11S, S12P, P15L, Y42L, L43Q, K45R, Q51R, S73A
notes: complete MAb; FR4 is its own entry; also called H21/L7
B7: M33 (antibody, V domains shown)
VH: B1 VH
VL: B3 VL
notes: complete MAb; FR4 is its own entry; also called H18/L5
B8: M53 (antibody, V domains shown)
VH: B2 VH
VL: B3 VL with T7S, S12P, Q17E, P49S
notes: complete MAb; FR4 is its own entry; also called H21/L4
B9: M35 (antibody, V domains shown)
VH: B1 VH
VL: B3 VL with L11S, S12P, P15L, Y42L, L43Q, K45R, Q51R, S73A
notes: complete MAb; FR4 is its own entry; also called H18/L7
B10: M52 (antibody, V domains shown)
VH: B2 VH
VL: B3 VL with S12P, Q17E, P49S
notes: complete MAb; FR4 is its own entry; also called H21/L3
B11: M10 (antibody, V domains shown)
VH: EVQLVQSGAEVKKPGESLRISCKGSGYTFITYWIEWVRQMPGKGLEWMGDILPGSGSTNYNENFKGHVTISADKSISTAYLQWSSLKASDTAMYYCARSGYYGNSGFAYWGQGTLVTVSS
VL: B3 VL with S12P, Q17E, P49S
notes: complete MAb; FR4 is its own entry; also called H15/L3
B12: M37 (antibody, V domains shown)
VH: B2 VH with E1Q, A16S, T17S, I20V, V24A, Q38R, K43Q, T74E, D77S, T98R
VL: B1 VL
notes: complete MAb; FR4 is its own entry; also called H19/L2
B13: M42 (antibody, V domains shown)
VH: B2 VH with E1Q, A16S, T17S, I20V, V24A, Q38R, K43Q, T74E, D77S, T98R
VL: B3 VL with L11S, S12P, P15L, Y42L, L43Q, K45R, Q51R, S73A
notes: complete MAb; FR4 is its own entry; also called H19/L7
B14: M46 (antibody, V domains shown)
VH: QVQLVQSGAEVKKPGASVKVSCKASGYTFITYWIEWVRQAPGQGLEWMGDILPGSGSTNYNENFKGRVTMTTDTSTSTAYMELRSLRSDDTAVYYCARSGYYGNSGFAYWGQGTLVTVSS
VL: B3 VL with T7S, S12P, Q17E, P49S
notes: complete MAb; FR4 is its own entry; also called H20/L4
B15: M68 (antibody, V domains shown)
VH: B14 VH with A16S, N61A, E62Q, N63K, K65Q, M70I, T72A, T74E, R84S, D89E
VL: B3 VL
notes: complete MAb; FR4 is its own entry; also called H23/L5
B16: M26 (antibody, V domains shown)
VH: B14 VH with G44R, M70I, T72R, T76A, R84S, D89E
VL: B3 VL
notes: complete MAb; FR4 is its own entry; also called H17/L5

As usually defined, the Kd is the free concentration of one partner at which half of the binding sites on the other are occupied at equilibrium, for simple one-to-one binding. Usually koff stands for the rate constant with which the complex falls apart. As usually defined, the kon is the rate constant with which the complex forms. A word on the EC50: it is the concentration giving half of the maximal effect.

The first test addresses T1, Cynomolgous monkey (cyno) TF-ECD with His Tag (cynomolgus monkey, UniProt P13726 33-251 (human entry)).
T1 construct: also called cyno antigen
T1 chain: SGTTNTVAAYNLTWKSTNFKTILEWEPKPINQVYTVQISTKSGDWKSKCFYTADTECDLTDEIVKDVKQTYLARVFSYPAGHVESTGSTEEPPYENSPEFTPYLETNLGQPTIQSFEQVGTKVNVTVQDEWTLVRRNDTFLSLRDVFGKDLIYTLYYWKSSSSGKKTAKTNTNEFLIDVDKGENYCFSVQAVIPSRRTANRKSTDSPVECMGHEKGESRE
The test is described as follows: direct ELISA of supernatants, chemiluminescent. As to the method: A solution Phase direct TF binding ELISA using chemiluminescent detection was used to rank the top binders from human framework adaptation library. The 96 well black maxisorp plates were coated with 100 uL of 4 ug/ml Goat anti human IgG FC diluted in carbonate-bicarbonate buffer, pH 9.4 at 4° C. overnight and then washed thrice with wash buffer (PBS with 0.05% Tween-20 solution) and blocked with […] 1% BSA/10 mM PBS solution for 1 hour followed by a washing as before. Samples or standards were diluted to 50 ng/ml in Assay Buffer (1% BSA in PBS+05% Tween) and 100 ul was added to the assay plate at room temperature for 1 hour with shaking. The plates were washed thrice and 100 ul per well of human or cynomologus TF-ECD with His Tag was added at 100 ng/ml diluted in Assay Buffer and incubate for 2 hours at room temperature. After washing, 100 ul per well of Qiagen peroxidase conjugated penta-his at 1:2000 dilution in assay buffer was added and incubated 1 hour at room temperature with shaking. The BM ChemiLum Substrate (BM Chemilum, POD, Roche) was made freshly at 1:100 dilution into Buffer and 100 ul added to the plates after a final wash. After 10 minutes the plates are read on Perkin Elmer Envision Reader, BM ChemiLum program.
For primary screening of library variants in crude supernatants, samples or controls were normalized to 50 ng/ml in spent FreeStyle 293 HEK media (Gibco) and assayed at single concentration determinations. In the present assay, the concentration of antibody was 5 ng (0.1 ml used) and the TF ECD and the antigen was His6-TF-ECD₁₋₂₁₉ used at a final concentration of 10 ng/well.
(An ELISA detects its analyte on a solid surface through an enzyme-linked reagent.)
Regarding B1, the binding result was “no binding (tested: 50 ng/ml)”.
The same measure, in the same setting: in the case of B2 it was “no binding (tested: 50 ng/ml)”; in that of B3, “no binding (tested: 50 ng/ml)”.
Turning to B4, the binding result is given as “no binding (tested: 50 ng/ml)”.
Same read-out and setting: in the case of B5 it was “no binding (tested: 50 ng/ml)”; in that of B6, “no binding (tested: 50 ng/ml)”; in that of B7, “no binding (tested: 50 ng/ml)”.
On the same count and under the same terms, in the case of B8 it was “no binding (tested: 50 ng/ml)”.
Same read-out and setting: the value for B9 was “no binding (tested: 50 ng/ml)”; that for B10 was “no binding (tested: 50 ng/ml)”.

In the next test the target is T1, Cynomolgous monkey (cyno) TF-ECD with …. The test is described as follows: Biacore.
Consider B11, for which binding was put at a Kd of 1.57 nM.

The target in the next test is Innovin, lyophilized recombinant human tissue factor combined with phospholipids (human, UniProt P13726 33-295, limits assumed). Briefly: cell-based or functional assay.
As for B12, the “T½ Max (seconds), coagulation of human plasma” value (“T½ Max (seconds), coagulation” below) is 196 s.
In the case of B2, the “T½ Max (seconds), coagulation” value worked out at 207 s.
With B11, the “T½ Max (seconds), coagulation” value worked out at 196 s.
Same read-out and setting: the value for B13 was 202 s; that for B14 was 195 s; that for B15 was 207 s.
Take B10: the “T½ Max (seconds), coagulation” value came to 201 s.
In the case of B16, the “T½ Max (seconds), coagulation” value stood at 186 s.

A further test deals with T2, recombinant extracellular domain (ECD) of human TF, amino acid 1-219 of the mature chain, C-terminal His6-tag (human, UniProt P13726 33-251).
T2 construct: expressed in a mammalian system; used for ELISA and Biacore; biotinylated by NHS-ester for the Fab ELISA; also called His6-TF-ECD1-219; HumanTF1-219
Briefly: Biacore. In general terms: SPR reads the build-up and loss of mass on a sensor chip optically.
Regarding B12, the dissociation constant (Kd) was 0.54 nM, the koff is 3.7e-05 s⁻¹ and the kon turned out to be 69000 M⁻¹ s⁻¹.
The matching figures for B2: 2.9 nM, 0.000235 s⁻¹ and 81100 M⁻¹ s⁻¹.
B13: the Kd was found to be 1.02 nM, the koff is 8.2e-05 s⁻¹ and the kon came to 80400 M⁻¹ s⁻¹.
The matching figures for B14: 0.49 nM, 4.4e-05 s⁻¹ and 90000 M⁻¹ s⁻¹.
B15: the Kd is 1.6 nM, the koff amounted to 0.000103 s⁻¹ and the kon amounted to 64300 M⁻¹ s⁻¹.
In the case of B10, the Kd turned out to be 3.57 nM, the koff is 0.000264 s⁻¹ and the association rate constant (kon) was 74000 M⁻¹ s⁻¹.
For B16, in that order: 1.13 nM, 9.3e-05 s⁻¹ and 82600 M⁻¹ s⁻¹.

A further test concerns the target T2, recombinant extracellular domain (ECD) …. The test is described as follows: direct ELISA, 50 ng/ml.
In the case of B1, the binding result was “binds”.
On the same count and under the same terms, the value for B3 was “binds”.
Take B4: the binding result was “binds”.
In the case of B5, the binding result is given as “binds”.
With B6, the binding result was “binds”.
Still for that read-out and setting: the value for B7 was “binds”.
Same read-out and setting: the value for B9 was “binds”.

A further test concerns the target T1, Cynomolgous monkey (cyno) TF-ECD with …. The test is described as follows: TF-ECD binding ELISA, chemiluminescent.
Molecule B11 displayed an EC50 of 0.0196 µg/mL.

Another test addresses T2, recombinant extracellular domain (ECD) …. The test is described as follows: TF-ECD binding ELISA, chemiluminescent.
Regarding B11, the EC50 came to 0.0105 µg/mL.

A further test has as its target endogenous human tissue factor on MDA-MB-231 breast cancer cells (human, UniProt P13726 33-295). Briefly: cell-based or functional assay.
For the molecule B12, the “% IL-8 Inhibition” value worked out at 71.2%.
With B2, the “% IL-8 Inhibition” value worked out at 71.5%.
Still for that read-out and setting: in the case of B11 it was 90.7%; in that of B13, 86%; in that of B14, 82.5%.
The same measure, in the same setting: the value for B15 was 89.8%; that for B10 was 67.7%.
As to B16, the “% IL-8 Inhibition” value came to 79.1%.
